Legend:
[1] = target: GST-NefR90 (HIV-1 Nef carrying an F90R mutation) (HIV-1) [GST: P08515]
[2] = target: GST-Nef (HIV-1 NL4-3 Nef containing a T71R change) (HIV-1 NL4-3) [GST: P08515]
[3] = target: GST-Nef (HIV-1 NL4-3 Nef containing a T71R change) (HIV-1 NL4-3) [GST: P08515]; test: competition plate assay: unlabeled GST-SH3 vs biotinylated Hck-SH3 probe (66 nM) on immobilized GST-Nef
[4] = target: GST-Nef (HIV-1 NL4-3 Nef containing a T71R change) (HIV-1 NL4-3) [GST: P08515]; test: calculated from competition with Hck-SH3 probe on immobilized Nef, based on KD 250 nM of Hck-SH3/Nef
[5] = target: GST-NefR90 (HIV-1 Nef carrying an F90R mutation) (HIV-1) [GST: P08515]; test: estimated from competition by Hck-SH3 and the earlier KD 1.99 µM of Hck-SH3/NefR90
[6] = target: GST-Nef (HIV-1 NL4-3 Nef containing a T71R change) (HIV-1 NL4-3) [GST: P08515]; remark: listed apart in the source
[7] = target: GST-NefR90 (HIV-1 Nef carrying an F90R mutation) (HIV-1) [GST: P08515]; remark: listed apart in the source

| Substance | inhibition at an equimolar probe:competitor ratio [1] | inhibition at an equimolar probe:competitor ratio [2] | ratio of competitor per probe giving 50% inhibition (1:x competitor:probe) [3] | Kd [4] | Kd [5] | IC50 [6] | fold excess over the probe needed for 50% inhibition [6] | IC50 [7] | fold molar excess over the probe needed for 50% inhibition [7] |
| --- | --- | --- | --- | --- | --- | --- | --- | --- | --- |
| GST-RRT.B1 (Hck-derived RRT-SH3 domain, RT-loop WSPFPS) (from UniProt P08631 62-118) (designed binder) | 9% | 41% | 26 | – | – | – | – | – | – |
| GST-RRT.A1 (Hck-derived RRT-SH3 domain, RT-loop VSWSPD) (from UniProt P08631 62-118) (designed binder) | 52% | 55% | 35 | 7 nM | < 100 nM | – | – | – | – |
| GST-RRT.m1 (Hck-derived RRT-SH3 domain selected on NefR90, RT-loop QGFLDQ) (from UniProt P08631 62-118) (designed binder) | 73% | < 5% | 0.8 | – | – | – | – | – | – |
| GST-RRT.A2 (Hck-derived RRT-SH3 domain, RT-loop FSWSDT) (from UniProt P08631 62-118) (designed binder) | 53% | 20% | 19 | – | – | – | – | – | – |
| GST-RRT.C2 (Hck-derived RRT-SH3 domain, RT-loop YSFFPW) (from UniProt P08631 62-118) (designed binder) | 13% | 20% | 16 | – | – | – | – | – | – |
| GST-RRT.B6 (Hck-derived RRT-SH3 domain, RT-loop YSPFSW) (from UniProt P08631 62-118) (designed binder) | 14% | 51% | 37 | 7 nM | – | – | – | – | – |
| GST-RRT.m2 (Hck-derived RRT-SH3 domain selected on NefR90, RT-loop NAFLPS) (from UniProt P08631 62-118) (designed binder) | 73% | < 5% | 2 | – | – | – | – | – | – |
| GST-RRT.B2 (Hck-derived RRT-SH3 domain, RT-loop DSPFSF) (from UniProt P08631 62-118) (designed binder) | 26% | 22% | 22 | – | – | – | – | – | – |
| GST-RRT.m4 (Hck-derived RRT-SH3 domain selected on NefR90, RT-loop ESYSEW) (from UniProt P08631 62-118) (designed binder) | 46% | < 5% | – | – | – | – | – | – | – |
| GST-RRT.m3 (Hck-derived RRT-SH3 domain selected on NefR90, RT-loop EAWSPL) (from UniProt P08631 62-118) (designed binder) | 62% | 22% | 17 | – | – | – | – | – | – |
| GST-RRT.A4 (Hck-derived RRT-SH3 domain, RT-loop YSWSDM) (from UniProt P08631 62-118) (designed binder) | 44% | 34% | 10 | – | – | – | – | – | – |
| GST-RRT.B4 (Hck-derived RRT-SH3 domain, RT-loop FSPFDW) (from UniProt P08631 62-118) (designed binder) | 37% | 41% | 21 | – | – | – | – | – | – |
| GST-Hck-SH3 (native Hck SH3 domain, GST fusion protein) (from UniProt P08631 78-138) | < 5% | < 5% | 1 | – | – | > 850 nM | > 100 fold | > 1100 nM | > 16 fold |
| GST-RRT.C4 (Hck-derived RRT-SH3 domain, RT-loop DSWFPW) (from UniProt P08631 62-118) (designed binder) | 19% | 10% | 14 | – | – | – | – | – | – |
| GST-RRT.C3 (Hck-derived RRT-SH3 domain, RT-loop YSDFPW) (from UniProt P08631 62-118) (designed binder) | 20% | 42% | 26 | – | – | – | – | – | – |
| GST-RRT.C1 (Hck-derived RRT-SH3 domain, RT-loop TSPFPW) (from UniProt P08631 62-118) (designed binder) | < 5% | 39% | 31 | 7 nM | – | – | – | – | – |
| GST-RRT.D1 (Hck-derived RRT-SH3 domain, RT-loop SSFYSS) (from UniProt P08631 62-118) (designed binder) | 17% | 45% | 22 | – | – | – | – | – | – |

From patent US6794144
